Legend:
UTMC2 cells [1] = assay: Viability of stimulated UTMC2 myeloma cells (MTT); type: cell-based, human
Description: FIG. 2 is a graph showing the viability of human myeloma cell lines in the presence of PRO-001. Viability is reported as the ratio between the optical density (OD) in the presence of FGF±inhibitor and the OD in the absence of FGF.
FIG. 4 is a graph showing viability of UTMC2 cells treated with FGF, IL6 or IGF-1. The dark bars represent stimulated cells treated with a control antibody; the dotted bar represents stimulated cells treated with 5 μg/ml PRO-001; the square-filled bar represents stimulated cells treated with 100 nM PD173074.
Non-transformed rat chondrocyte cell line expressing PGFR3 in an inducible manner (RCJ-FGFR3) has been described previously (Rauchenberger R. et al. J. Biol. Chem. 2003; 278:38194-205). Cells were maintained in α-Minimum Essential Media supplemented with 15% fetal calf serum (FCS), 2 mM L-Glutamine, 100 U/ml penicillin, 100 μg/ml streptomycin, 600 μg/ml G418 (Gibco BRL, Ontario, Canada), 2 μg/ml Tetracyclin (Sigma, Ontario, Canada), and 50 μg/ml HygromycinB (Gibco BRL). FGFR3 expression was induced by removal of tetracyclin and serum starvation. […]
Cell viability was assessed by 3-(4,5-dimethylthiazol)-2,5-diphenyl tetrazolium (MTT) or (2,3-bis(2-methoxy-4-nitro-5-sulphophenyl)-5-[(phenylamino) carbonyl]-2H-tetrazolium hydroxide (XTT) dye absorbance where indicated. Cells were seeded in 96-well plates at a density of 20,000 (FDCP-1 cells), 5,000 (B9 cells) or 25,000 cells (MM cell lines) per well in culture medium. Cells were incubated in the absence or presence of one of the following cytokines: 10 ng/ml FGF9 and 5 μg/ml heparin, 1% murine IL-6, 50 ng/ml IGF-1 or 50 ng/ml human IL-6 where indicated and increasing concentrations of PRO-001, control antibody (purified human Fab) or 100 nM PD173074. […]
PRO-001 was tested against t (4; 14) myeloma cell lines expressing FGFR3: UTMC2 cells—expressing WT FGFR3, and H929 cells—expressing WT FGFR3 but harboring a downstream activating mutation of N-Ras. Cell growth in the presence of FGF and PRO-001 (5 μg/ml), control antibody (isotype) or 100 nM PD173074 was determined by MTT assay. […]

UTMC2 cells [2] = assay: Apoptosis of UTMC2 cells co-cultured with bone marrow stroma cells (annexin V); type: cell-based, human; conditions: 5 μg/ml, 72 hours (FIG. 5 legend)
Description: FIG. 5 is a graph showing apoptosis of UTMC2 cells in response to treatment with PRO-001 in the presence of BMSCs (stroma). BMSCs alone (stroma) or BMSCs together with UTMC2 cells (stroma/UTMC2) were cultured with control antibody or 5 μg/ml PRO-001 for 72 hours and apoptosis was assessed by means of a flow cytometry assay of annexin V binding and propidium iodide exclusion. Values represent means of quadruplicate cultures ±SD.
For studies of apoptosis, cells were seeded at an initial density of 2.5×10^5/ml in 6 well plates coated with BMSCs and supplemented with control (vehicle or antibody) or 5 μg/ml PRO-001 and cultured for […]. Apoptosis was determined by Annexin V staining (Boehringer Mannheim, Indianapolis, Ind.) and analyzed by flow cytometry. Annexin V is a protein that binds specifically to phosphotidyl-serine in the cell membrane. Binding occurs once the membrane has started to break down and the phospholipids are released into the extracellular media.

B1: PRO-001: human anti-FGFR3 Fab from HuCAL library; VH-CDR3 SEQ ID NO:1, VL-CDR3 SEQ ID NO:10; VH SEQ ID NO:19, VL SEQ ID NO:28 (antibody, V domains shown)
VH: QVQLQQSGPGLVKPSQTLSLTCAISGDSVSSNSAAWNWIRQSPGRGLEWLGRTYYRSKWYNDYAVSVKSRITINPDTSKNQFSLQLNSVTPEDTAVYYCARSYYPDFDYWGQGTLVTVSS
VL: DIELTQPPSVSVAPGQTARISCSGDALGDKYASWYQQKPGQAPVLVIYDDSDRPSGIPERFSGSNSGNTATLTISGTQAEDEADYYCQSYDGPDLWVFGGGTKLTVLGQ
- Viability of UTMC2 cells stimulated with IGF-1 (UTMC2 cells [1]; 5 μg/ml PRO-001): remain sensitive
- Viability of UTMC2 cells stimulated with IL6 (UTMC2 cells [1]; 5 μg/ml PRO-001): remain sensitive
- Proliferation of FGF-stimulated UTMC2 cells (UTMC2 cells [1]; 5 μg/ml, MTT): significantly inhibited
- Apoptosis of UTMC2 cells co cultured with BMSC (UTMC2 cells [2]): induces a high level of apoptosis

— US20090175866A1, “TREATMENT OF B-CELL MALIGNANCIES” (priority 2004, published 2009)
